According to patent US20210070829A1:

Biological target: FGFR/β-Klotho receptor complex
Assay: cell-based or functional assay

FGF21 activity EC50 (luciferase reporter): 0.12 nM
Substance: Native FGF21 (from UniProt Q9NSA1 29-209) (ligand)
